{
  "source": "paper PMC8081665",
  "about": "“Structural and biochemical mechanisms of NLRP1 inhibition by DPP9” (Nature, 2021)",
  "molecules": {"B1": {"name": "rNLRP1 FIIND–CARD(S969A) (domain or fragment)", "chain": "GDKHMEPLGTDDDFWGPSGPVSTEVVDRERNLYRVRLPMAGSYHCPSTGLHFVVTRAVTIEIGFCAWSQFLHETPLQHSHMVAGPLFDIKAEHGAVTAVCLPHFVSLQEGKVDSSLFHVAHFQDHGMVLETPARVEPHFAVLENPSFAPMGVLLRMIPAVGHFIPITSITLIYYRLYLEDITFHLYLVPNDCTIRKAIDEEELKFQFVRINKPPPVDALYVGSRYIVSSSKEVEILPKELELCYRSPRESQLFSEIYVGNIGSGINLQLTDKKYMNLIWEALLKPGDLRPALPRMASAPKDAPALLHFVDQHREQLVARVTSVDPLLDKLHGLVLSEEDYETVRAEATNQDKMRKLFRGSRSWSWDCKDHFYQALKETHPHLIMDLLEKSGGVSVRL"}, "B2": {"name": "full-length rat NLRP1 (natural protein, UniProt D9I2G3 1-1218, looked up)", "chain": "MEESQSKQESNTRVAQHGSQQDVDPTFQTKRALEKERSKPRPRPLPRVQLQSLPGWSSTSKDVPLSQLIREMDHESRRCIHRSKKKLDRSEHISQGTIPEIYEKRKETISHTQSMEQKYLFQNFTKLLLLQKCCPGGSEKLVRESWHPCVPEEGGHMIEIQDLFDPNLDTEKKPQLVIIEGAAGIGKSTLARQVKRAWDEGQLYRDRFQHVFFFSCRELAQCKQLSLAELIAQGQEVPTAPTRQILSRPEKLLFILDGIDEPAWVLEDQNPELCVHWSQAQPVHTLLGSLLGKSILPEASLMLTARTTALQKLVPSLGQPHRVEVLGFSEFERKDYFYKYFAKERNTIIDFNLIGSIPVLLTLCEVPWVCWLLCTCLEKQMQQGEVLSLTSQTTTALCLKYLSLTIPGQHLSTQLRTLCSLAAEGICQRRTLFSKSDLCKQGLAEDAIATFLKIGVLQRQPSSLSYSFAHLCLQEFFAAMSYILEDSEEAHGDMGNDRTVETLVERYGRQNLFEAPTVRFLLGLLNTREMREMENIFACKFPWETKLKLLQSIIGEPFCQPCHLGLFHCLYENQEEELLTETMLCFPLTASGPNHMEATVFQTNVKRLVIQTDMELMVVTFCITFSHVRSLRLKGKGQQEYKLTAPAMVLYRWTPISEASWKVLFSNLKCTRNLEELDLSGNPLSYSAVRSLCTALRQPGCRLKTLWLVDCGLTSRCCSFLASMLSAHSRLAELDLRLNDLGDNGVRQLCEGLRNPACNLSILRLDQASLSEQVITELRALETKNPKLFISSTWMSHMTMPTENTDGEESLTSSKQQQQQSGDKHMEPLGTDDDFWGPSGPVSTEVVDRERNLYRVRLPMAGSYHCPSTGLHFVVTRAVTIEIGFCAWSQFLHETPLQHSHMVAGPLFDIKAEHGAVTAVCLPHFVSLQEGKVDSSLFHVAHFQDHGMVLETPARVEPHFAVLENPSFSPMGVLLRMIPAVGHFIPITSITLIYYRLYLEDITFHLYLVPNDCTIRKAIDEEELKFQFVRINKPPPVDALYVGSRYIVSSSKEVEILPKELELCYRSPRESQLFSEIYVGNIGSGINLQLTDKKYMNLIWEALLKPGDLRPALPRMASAPKDAPALLHFVDQHREQLVARVTSVDPLLDKLHGLVLSEEDYETVRAEATNQDKMRKLFRGSRSWSWDCKDHFYQALKETHPHLIMDLLEKSGGVSVRL", "notes": "rat NLRP1, residues 1-1218, gene synthesized from GenBank HM060632.1; Autocleaves in the FIIND between F968 and S969; of the second copy only UPA is seen, and the abstract calls it a UPA-CARD fragment; also called rNLRP1; full-length rNLRP1; source: sf21 insect cells (baculovirus), co-expressed with rDPP9, purified (GS4B, PreScission, gel filtration); not shown: GST, N-terminal, cleaved"}, "B3": {"name": "ZU5 subdomain of the autocleaved rNLRP1 FIIND (domain or fragment, rat, UniProt D9I2G3 822-968, looked up)", "chain": "GDKHMEPLGTDDDFWGPSGPVSTEVVDRERNLYRVRLPMAGSYHCPSTGLHFVVTRAVTIEIGFCAWSQFLHETPLQHSHMVAGPLFDIKAEHGAVTAVCLPHFVSLQEGKVDSSLFHVAHFQDHGMVLETPARVEPHFAVLENPSF", "notes": "rat NLRP1, from the start of the FIIND construct (822) to F968, the residue before the autocleavage site; source: sf21 insect cells, purified; product of the autocleavage of rNLRP1 FIIND (822-1122); not shown: GST, N-terminal, cleaved"}},
  "key": {"[1]": {"target": "GST–rNLRP1 FIIND(S969A) (rat) (UniProt D9I2G3)", "assay": "SEC; Superose 6 10/30, 10 mM Tris pH 8.0, 100 mM NaCl; purified GST–rNLRP1 FIIND(S969A)–rDPP9 complex incubated with fully processed rNLRP1 FIIND at a molar ratio of about 1:1 at 4 °C for 150 min"}, "rat DPP9 (rat) [2]": {"target": "rat DPP9 (rat)", "assay": "cryo-EM structure; purified complex after gel filtration, about 0.3 mg/ml in 25 mM Tris-HCl pH 8.0, 150 mM NaCl, 3 mM DTT; Titan Krios 300 kV"}, "rat DPP9 (rat) [3]": {"target": "rat DPP9 (rat)", "assay": "cryo-EM structure; purified complex after gel filtration, about 0.3 mg/ml in 25 mM Tris-HCl pH 8.0, 150 mM NaCl, 3 mM DTT; Titan Krios 300 kV", "remark": "listed apart in the source"}, "[4]": {"target": "the molecule itself", "assay": "cryo-EM structure; purified complex after gel filtration, about 0.3 mg/ml in 25 mM Tris-HCl pH 8.0, 150 mM NaCl, 3 mM DTT; Titan Krios 300 kV"}, "[5]": {"target": "T1, UPA subdomain of the autocleaved rNLRP1 FIIND (rat, UniProt D9I2G3 969-1122)", "T1 construct": "rat NLRP1, from S969, the residue after the autocleavage site, to the end of the FIIND construct (1122); source: sf21 insect cells, purified; product of the autocleavage of rNLRP1 FIIND (822-1122)", "T1 sequence (looked up)": "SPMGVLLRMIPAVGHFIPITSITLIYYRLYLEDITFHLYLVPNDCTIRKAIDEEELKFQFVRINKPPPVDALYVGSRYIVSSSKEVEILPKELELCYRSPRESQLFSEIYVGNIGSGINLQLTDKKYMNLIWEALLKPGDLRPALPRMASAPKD", "assay": "crystal structure; rNLRP1 FIIND at 8 mg/ml, hanging drop at 18 °C, 1.0 M ammonium sulfate, 0.1 M Bis-Tris pH 5.5, 1% PEG 3,350", "conditions": "both partners purified"}},
  "note": "Read-outs that look alike come from different tables or passages of the source.",
  "data": [
    {"molecule": "rat DPP9 (enzyme)", "values": [
      {"measurement": "stoichiometry N", "setting": "[1]", "value": 1},
      {"measurement": "stoichiometry N", "setting": "rat DPP9 (rat) [2]", "value": 2}
    ]},
    {"molecule": "B1", "values": [
      {"measurement": "stoichiometry N", "setting": "rat DPP9 (rat) [3]", "value": 1}
    ]},
    {"molecule": "B2", "values": [
      {"measurement": "stoichiometry N", "setting": "rat DPP9 (rat) [3]", "value": 2},
      {"measurement": "binding result", "setting": "[4]", "value": "binds"}
    ]},
    {"molecule": "B3", "values": [
      {"measurement": "binding result", "setting": "[5]", "value": "binds"}
    ]}
  ]
}
